Laboratory results reported in patent publication US20090131309A1, “ICA512 COUPLES INSULIN SECRETION AND GENE EXPRESSION IN BETA-CELLS” (Technische Universität Dresden Medizinizche Fakultät Carl …, priority 2004, published 2009).
Values belong to the molecule of their own block, whether it stands above or below them. Residues, ends and D or L forms follow the SMILES beside them. *: point of attachment. Cbz = O=C(OCc1ccccc1)*

Experiments:
μ-calpain = biological target: T1, μ-calpain (Homo sapiens, UniProt P07384); type: biochemical; settings: bacterially expressed ICA512 (601-979), 50 μM Ca2+, 30 μM inhibitor
T1 sequence (P07384 1-714): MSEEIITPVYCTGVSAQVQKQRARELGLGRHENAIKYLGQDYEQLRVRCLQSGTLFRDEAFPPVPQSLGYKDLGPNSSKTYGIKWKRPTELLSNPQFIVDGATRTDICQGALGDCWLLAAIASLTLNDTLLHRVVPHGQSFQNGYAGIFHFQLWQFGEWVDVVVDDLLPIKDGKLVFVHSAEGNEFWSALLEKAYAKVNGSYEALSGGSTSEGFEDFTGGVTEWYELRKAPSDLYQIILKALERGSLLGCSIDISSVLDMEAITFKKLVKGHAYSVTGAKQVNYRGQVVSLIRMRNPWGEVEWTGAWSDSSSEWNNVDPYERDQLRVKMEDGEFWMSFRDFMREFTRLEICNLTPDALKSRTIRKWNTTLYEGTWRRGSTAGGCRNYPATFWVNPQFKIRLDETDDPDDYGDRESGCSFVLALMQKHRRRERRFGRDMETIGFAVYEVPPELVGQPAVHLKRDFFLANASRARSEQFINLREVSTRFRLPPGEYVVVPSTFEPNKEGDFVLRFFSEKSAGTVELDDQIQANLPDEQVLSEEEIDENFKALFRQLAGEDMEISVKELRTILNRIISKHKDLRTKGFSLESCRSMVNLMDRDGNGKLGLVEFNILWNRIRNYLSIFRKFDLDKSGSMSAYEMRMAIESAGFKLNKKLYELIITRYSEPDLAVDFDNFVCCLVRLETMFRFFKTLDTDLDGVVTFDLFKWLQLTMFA
T1 sequence (P04632 1-268 partner): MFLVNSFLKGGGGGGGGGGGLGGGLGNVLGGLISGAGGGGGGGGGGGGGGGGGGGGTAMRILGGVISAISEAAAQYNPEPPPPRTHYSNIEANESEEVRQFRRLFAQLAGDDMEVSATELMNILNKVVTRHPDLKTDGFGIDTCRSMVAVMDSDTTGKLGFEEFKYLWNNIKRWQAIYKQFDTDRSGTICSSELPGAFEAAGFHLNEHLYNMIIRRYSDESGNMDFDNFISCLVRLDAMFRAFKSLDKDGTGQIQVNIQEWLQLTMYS
Protocol: In-vitro μ-calpain cleavage. 3 μg bacterially expressed His-ICA512 cytoplasmic domain (residues 601-979) (Ort et al., 2001) were incubated in 20 μl buffer (20 mM Tris-HCl pH 7.5, 50 μM CaCl2, 1 mM L-cysteine) at room temperature with or without 150 ng μ-calpain (Calbiochem) and 30 μM calpeptin or MG-132 for 1, 5, 15 or 45 minutes. The reactions were stopped by addition of an equal volume of 2×SDS sample buffer. Following SDS-PAGE, proteins were stained with Coomassie Blue (Bio-Rad).

[1] = test system: T2, 6X histidine-tagged human ICA512 cytoplasmic domain (residues 601-979)
T2 sequence: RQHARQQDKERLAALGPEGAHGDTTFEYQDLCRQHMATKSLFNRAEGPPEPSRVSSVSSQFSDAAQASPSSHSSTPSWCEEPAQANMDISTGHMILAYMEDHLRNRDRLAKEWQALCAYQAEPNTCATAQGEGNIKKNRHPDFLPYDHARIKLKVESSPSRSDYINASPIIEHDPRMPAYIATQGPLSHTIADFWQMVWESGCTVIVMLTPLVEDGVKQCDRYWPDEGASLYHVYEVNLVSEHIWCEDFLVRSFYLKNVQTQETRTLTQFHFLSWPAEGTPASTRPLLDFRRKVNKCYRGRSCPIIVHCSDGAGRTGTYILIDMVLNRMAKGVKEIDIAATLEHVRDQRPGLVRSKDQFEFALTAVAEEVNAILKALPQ

[2] = biological target: ICA512-TMF (endogenous in INS-1 cells) (rat) (UniProt Q63259); assay: cell-based or functional assay
STAT5 = assay: Firefly luciferase reporter assay for STAT activity (8GLE-CAS-FL) in INS-1 cells; type: cell-based, rat; settings: co-transfected INS-1 cells, hGH stimulation
Protocol: Firefly luciferase assays. INS-1 cells were co-transfected with 8GLE-CAS-FL and one or two of the following plasmids: pEGFP, ICA512-CCF-GFP, ICA512-CCF(K/A^754)-GFP and PIASy-GFP. Two days after transfection, cells were incubated in low serum medium for 18 hrs, then stimulated with 20 nM hGH for 20 minutes, and finally left in resting buffer for 6 additional hours. Cells were harvested in 500 μl lysis reagent for luciferase assays (Promega) and 10 μl were used for measurement of luciferase activity in a Berthold luminometer. Each sample was performed in triplicate and the data represent the mean of at least 2 independent experiments.

PIASy = biological target: T3, PIASy (Mus musculus, UniProt Q9JM05); assay: GST pull-down assay with PIASy; type: binding; settings: in-vitro transcribed and translated 35S-labeled partner, glutathione-sepharose beads
T3 construct: made in house; host or cells: in-vitro transcription-translation (T7 coupled system, Promega)
T3 sequence (Q9JM05 2-507): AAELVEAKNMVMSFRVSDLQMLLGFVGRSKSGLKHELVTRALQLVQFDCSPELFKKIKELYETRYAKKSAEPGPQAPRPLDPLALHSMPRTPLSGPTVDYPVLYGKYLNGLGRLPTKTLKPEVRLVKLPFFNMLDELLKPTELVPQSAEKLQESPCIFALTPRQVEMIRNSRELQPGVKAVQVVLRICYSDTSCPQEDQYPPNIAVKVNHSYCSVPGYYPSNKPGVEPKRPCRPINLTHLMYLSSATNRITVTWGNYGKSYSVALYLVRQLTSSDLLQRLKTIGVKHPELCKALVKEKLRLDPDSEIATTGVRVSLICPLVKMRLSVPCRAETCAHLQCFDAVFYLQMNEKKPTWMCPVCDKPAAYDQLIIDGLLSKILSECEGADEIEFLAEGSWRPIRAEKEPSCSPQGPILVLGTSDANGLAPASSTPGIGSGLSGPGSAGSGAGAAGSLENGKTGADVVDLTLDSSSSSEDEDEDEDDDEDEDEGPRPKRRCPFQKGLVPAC
Protocol: GST-Pull Down Assays. ICA512 (601-979) cDNA in pET28a (invitrogen) (29) was in vitro transcribed and translated using the T7/coupled transcription-translation system (Promega, Madison, Wis.) according to manufacture's instructions. PIAS1-GST and PIASy-GST (a kind gift of Rudolf Grosschedl) were expressed in bacteria as previously described (21, 30). Next, [^35S]-methionine-labeled ICA512 (601-979) was incubated overnight at 4° C. in GST binding buffer (120 mM NaCl, 50 mM Tris pH8, 0.25% Nonidet P-40, 1 mM DTT, 1 mM PMSF) with GST-fusion proteins or GST alone coupled to glutathione-sepharose beads (Amersham, Freiburg, Germany). Beads were washed five times with binding buffer, and then eluted with 10 mM reduced glutathione. The eluate was subjected to SDS-PAGE and analyzed by autoradiography.
Pull-down assays. GST-ICA512 (601-979), GST-ICA512 (700-979), and GST-ICA512 (800-979) were bacterially expressed as described^26. [^35S]-methionine-PIASy, -ICA512 (601-979), -p53 and -firefly luciferase were in-vitro transcribed and translated with the T7/coupled transcription-translation system (Promega) according to the manufacturer's instructions. [^35S]-PIASy was incubated with GST-ICA512 proteins or GST, while [^35S]-ICA512 (601-979), [^35S]-p53 and [^35S]-firefly luciferase were incubated with MBP-Ubc9. Proteins were collected with glutathione-(Amersham) or amylose-(New England Biolabs) sepharose beads as described^38. Proteins eluted from beads with glutathione or maltose were analyzed by SDS-PAGE and autoradiography with a phosphoimager BAS1800 II (Fuji).

stimulus-dependent degradation of ICA512-TMF after siRNA knockdown of µ-calpain in INS-1 cells [2]: 1.6 fold
Molecule: rat µ-calpain (endogenous in INS-1 cells) (from UniProt P97571 1-713)

binding to PIASy in pull-down assay (PIASy): bound
B3: GST-ICA512 (601-979): GST fusion encompassing the entire ICA512 cytoplasmic domain (protein)
chain: RQHARQQDKERLAALGPEGAHGDTTFEYQDLCRQHMATKSLFNRAEGPPEPSRVSSVSSQFSDAAQASPSSHSSTPSWCEEPAQANMDISTGHMILAYMEDHLRNRDRLAKEWQALCAYQAEPNTCATAQGEGNIKKNRHPDFLPYDHARIKLKVESSPSRSDYINASPIIEHDPRMPAYIATQGPLSHTIADFWQMVWESGCTVIVMLTPLVEDGVKQCDRYWPDEGASLYHVYEVNLVSEHIWCEDFLVRSFYLKNVQTQETRTLTQFHFLSWPAEGTPASTRPLLDFRRKVNKCYRGRSCPIIVHCSDGAGRTGTYILIDMVLNRMAKGVKEIDIAATLEHVRDQRPGLVRSKDQFEFALTAVAEEVNAILKALPQ
modifications: left off: a dimerising Fc or GST
notes: GST fusion encompassing the entire ICA512 cytoplasmic domain

binding to PIASy in pull-down assay (PIASy): bound
B4: GST-ICA512 (700-979): GST fusion which only contains the PTP domain (protein)
chain: EDHLRNRDRLAKEWQALCAYQAEPNTCATAQGEGNIKKNRHPDFLPYDHARIKLKVESSPSRSDYINASPIIEHDPRMPAYIATQGPLSHTIADFWQMVWESGCTVIVMLTPLVEDGVKQCDRYWPDEGASLYHVYEVNLVSEHIWCEDFLVRSFYLKNVQTQETRTLTQFHFLSWPAEGTPASTRPLLDFRRKVNKCYRGRSCPIIVHCSDGAGRTGTYILIDMVLNRMAKGVKEIDIAATLEHVRDQRPGLVRSKDQFEFALTAVAEEVNAILKALPQ
modifications: left off: a dimerising Fc or GST
notes: GST fusion which only contains the PTP domain

Second part, the molecule before the results:

Molecule: CC(C)C[C@@H](C=O)NC(=O)[C@H](CC(C)C)NC(=O)[C@H](CC(C)C)NC(=O)OCc1ccccc1 [MG-132] (Cbz-Leu-Leu-Leu-aldehyde)
Cleavage by μ-calpain (μ-calpain): inhibited

Molecule: µ-calpain (Calbiochem)
in-vitro cleavage of bacterially expressed ICA512 (601-979) by µ-calpain, Coomassie Blue staining [1]: Cleavage by µ-calpain was inhibited by calpeptin and MG-132, another inhibitor of cysteine proteases (FIG. 8)

B1: ICA512-CCF(K/A^754)-GFP: ICA512-CCF-GFP construct in which Lys754 was replaced by alanine (protein)
chain: SQFSDAAQASPSSHSSTPSWCEEPAQANMDISTGHMILAYMEDHLRNRDRLAKEWQALCAYQAEPNTCATAQGEGNIKKNRHPDFLPYDHARIKLAVESSPSRSDYINASPIIEHDPRMPAYIATQGPLSHTIADFWQMVWESGCTVIVMLTPLVEDGVKQCDRYWPDEGASLYHVYEVNLVSEHIWCEDFLVRSFYLKNVQTQETRTLTQFHFLSWPAEGTPASTRPLLDFRRKVNKCYRGRSCPIIVHCSDGAGRTGTYILIDMVLNRMAKGVKEIDIAATLEHVRDQRPGLVRSKDQFEFALTAVAEEVNAILKALPQ
modifications: left off: large carriers
notes: ICA512-CCF-GFP construct in which Lys754 was replaced by alanine
STAT5 transcription activity (8GLE-CAS-FL luciferase) (STAT5): enhances its transcription activity less than ICA512-CCF-GFP

B2: GST-ICA512 (800-979): GST fusion which lacks the first 100 residues of the PTP domain (protein)
chain: ESGCTVIVMLTPLVEDGVKQCDRYWPDEGASLYHVYEVNLVSEHIWCEDFLVRSFYLKNVQTQETRTLTQFHFLSWPAEGTPASTRPLLDFRRKVNKCYRGRSCPIIVHCSDGAGRTGTYILIDMVLNRMAKGVKEIDIAATLEHVRDQRPGLVRSKDQFEFALTAVAEEVNAILKALPQ
modifications: left off: a dimerising Fc or GST
notes: GST fusion which lacks the first 100 residues of the PTP domain
binding to PIASy in pull-down assay (PIASy): did not bind
